Measured values as given in patent US7446175 (dated 2008).

Columns and labels:
[1] = molecular target: T1, rat IL-1beta (rat, UniProt Q63264); assay: SPR, 8 nM
T1 chain: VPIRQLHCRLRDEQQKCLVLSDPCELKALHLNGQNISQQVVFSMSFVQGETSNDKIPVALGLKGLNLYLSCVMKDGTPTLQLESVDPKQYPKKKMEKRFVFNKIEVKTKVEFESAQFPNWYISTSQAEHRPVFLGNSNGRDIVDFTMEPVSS

[2] = molecular target: T2, rabbit IL-1beta (rabbit, UniProt P14628); assay: SPR, 8 nM
T2 chain: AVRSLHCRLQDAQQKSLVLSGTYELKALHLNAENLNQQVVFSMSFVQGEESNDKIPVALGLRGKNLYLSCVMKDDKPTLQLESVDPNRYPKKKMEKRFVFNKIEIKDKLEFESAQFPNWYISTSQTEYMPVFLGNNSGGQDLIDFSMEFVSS

[3] = molecular target: human IL-1Ra (human, UniProt P18510); assay: SPR, 8 nM
[4] = molecular target: T3, rhesus IL-1beta (rhesus monkey, UniProt P79182)
T3 chain: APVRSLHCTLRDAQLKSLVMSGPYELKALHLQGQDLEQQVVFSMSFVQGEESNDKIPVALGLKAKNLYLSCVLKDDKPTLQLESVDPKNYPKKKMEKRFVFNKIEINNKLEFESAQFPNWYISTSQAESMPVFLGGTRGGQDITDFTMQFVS

[5] = molecular target: T4, mouse IL-1beta (mouse, UniProt P10749); assay: SPR, 8 nM
T4 chain: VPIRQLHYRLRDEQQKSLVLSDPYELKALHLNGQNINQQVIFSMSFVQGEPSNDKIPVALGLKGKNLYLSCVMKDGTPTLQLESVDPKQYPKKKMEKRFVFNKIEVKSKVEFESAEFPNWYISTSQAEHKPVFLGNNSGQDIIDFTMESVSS

- binding result [1]: no binding
- binding result [2]: no binding
- binding result [3]: no binding
- binding result [4]: no binding
- binding result [5]: no binding
B1: ACZ885 (antibody, V domains shown)
VH: QVQLVESGGGVVQPGRSLRLSCAASGFTFSVYGMNWVRQAPGKGLEWVAIIWYDGDNQYYADSVKGRFTISRDNSKNTLYLQMNGLRAEDTAVYYCARDLRTGPFDYWGQGTLVTVSS
VL: EIVLTQSPDFQSVTPKEKVTITCRASQSIGSSLHWYQQKPDQSPKLLIKYASQSFSGVPSRFSGSGSGTDFTLTINSLEAEDAAAYYCHQSSSLPFTFGPGTKVDIK
